Like-named read-outs stand apart in the source and are kept apart here.
Tests used:
ScPif1p (237-780) [1] = target: T1, ScPif1p (237-780) (Saccharomyces cerevisiae, UniProt P07271 237-780); experiment: crystal structure
T1 sequence: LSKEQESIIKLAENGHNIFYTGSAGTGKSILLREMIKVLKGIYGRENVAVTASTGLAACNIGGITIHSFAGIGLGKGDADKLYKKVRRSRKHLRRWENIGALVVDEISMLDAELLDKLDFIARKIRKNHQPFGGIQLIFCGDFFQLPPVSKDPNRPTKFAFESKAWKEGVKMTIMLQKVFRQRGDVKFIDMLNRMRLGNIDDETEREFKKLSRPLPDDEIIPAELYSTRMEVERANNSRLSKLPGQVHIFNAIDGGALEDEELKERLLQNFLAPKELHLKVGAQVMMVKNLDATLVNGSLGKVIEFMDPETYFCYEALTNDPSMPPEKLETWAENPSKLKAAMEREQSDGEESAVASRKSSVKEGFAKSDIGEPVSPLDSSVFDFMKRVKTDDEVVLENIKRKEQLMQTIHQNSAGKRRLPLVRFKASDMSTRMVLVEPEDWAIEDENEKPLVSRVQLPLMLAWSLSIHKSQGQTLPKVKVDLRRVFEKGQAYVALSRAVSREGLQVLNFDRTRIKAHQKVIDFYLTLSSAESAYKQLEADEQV

ScPif1p (237-780) [2] = target: T1, ScPif1p (237-780); experiment: SEC-SAXS, gel filtration
ScPif1p (237-780) [3] = target: T1, ScPif1p (237-780); experiment: crystal structure; remark: listed apart in the source
ScPif1p (237-780) [4] = target: T1, ScPif1p (237-780); experiment: fluorescence anisotropy
ScPif1p (237-780) [5] = target: T1, ScPif1p (237-780); experiment: SEC-SAXS
ScPif1p (237-780) [6] = target: T1, ScPif1p (237-780); experiment: SEC-SAXS, gel filtration; remark: listed apart in the source
ScPif1p H303G/H705G = target: T2, ScPif1p H303G/H705G (Saccharomyces cerevisiae, UniProt P07271 237-780, H303G;H705G); experiment: fluorescence anisotropy
T2 sequence: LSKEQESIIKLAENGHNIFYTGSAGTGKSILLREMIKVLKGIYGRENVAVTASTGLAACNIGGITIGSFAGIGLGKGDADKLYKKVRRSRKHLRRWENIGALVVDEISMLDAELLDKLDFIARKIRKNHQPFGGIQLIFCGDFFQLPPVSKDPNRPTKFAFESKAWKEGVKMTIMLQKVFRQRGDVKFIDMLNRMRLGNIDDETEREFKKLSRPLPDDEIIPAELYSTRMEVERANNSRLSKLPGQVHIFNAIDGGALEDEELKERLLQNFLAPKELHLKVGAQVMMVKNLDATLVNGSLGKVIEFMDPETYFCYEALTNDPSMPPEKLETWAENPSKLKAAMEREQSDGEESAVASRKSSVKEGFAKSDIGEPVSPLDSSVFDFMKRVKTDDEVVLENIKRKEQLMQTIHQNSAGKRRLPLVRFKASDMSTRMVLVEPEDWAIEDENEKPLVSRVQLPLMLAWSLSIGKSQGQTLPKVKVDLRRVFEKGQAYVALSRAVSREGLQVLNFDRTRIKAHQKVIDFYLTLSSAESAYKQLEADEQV

ScPif1p (237-780) [7] = target: T1, ScPif1p (237-780); experiment: fluorescence anisotropy; remark: listed apart in the source

GGGTTTTT (ssDNA) [Poly(G3T5)]: binds (ScPif1p (237-780) [1]).

TTTTTTTTGGGTGGGTGGGTGGGT (structured_DNA) [8T3G4]: binds (ScPif1p (237-780) [2]).

TTTTTTTT (ssDNA) [Poly(T8)]: binds (ScPif1p (237-780) [3]).

TTTTTTTTTTTT (ssDNA) [Poly(T12)] showed a Kd (ScPif1p (237-780) [4]) of 15.1 nM.

TTTGGGTT (ssDNA) [Poly(T3G3T2)]: binds (ScPif1p (237-780) [1]).

GTGTGGTGTGG (ssDNA) [GR11]: binds (ScPif1p (237-780) [5]).

AGGGTTAGGGTTAGGGTTAGGG (structured_DNA) [3G4]: binds (ScPif1p (237-780) [6]).

CUCUGCUCGACG (ssRNA) [F-RNA12 (text: Poly(U12))] was tested, and the Kd (ScPif1p H303G/H705G) was 70.5 nM and the Kd (ScPif1p (237-780) [7]) was 163 nM.

Source: PMC5814829
